B1: F26G3 (antibody, V domains shown)
VH: EVRLQQSGPELVKPGASVKISCKTSGYTFTEYTMHWVKQSHGKNLEWIGGINPNNGGTTYNQKFKGKATLTVDKSSNTAYMELRSLTSEDSAVYYCSRGDYGTSYGYFDVWGAGTTVTVSS
VL: DILMTQSPTSFAVSLGQRATISCRTSQSVSTSSYSYMHWYQQKPGQPPKLLIKYASNLESGVPARFSGSGSGSDFTLNIHPVEEGDTATYYCQHSWEIPCAFGGGTKLEIKR
B2: F26G7 (antibody, V domains shown)
VH: VELLESGTVLARPGASVKMSCEASGYTFTTYWMHWIKQRPGQGLEWIGAIYPGNSDTTYNQKFKGKAKLTAVTSTSTAYMELSSLTNEDSAVYYCTREGIPQLLRTMDYWGQGTSVTVSS
VL: ELVMTQSPSSLSASLGERVSLTCRASQEISGYLSWLQQKPDGTIKRLIYAASTLDSGVPKRFSGSRSGSDYSLTISSLESEDFADYYCLQYISYPWTFGGGTKLEIKR
B3: F26G9 (antibody, V domains shown)
VH: VQLLESGTVLARPGASVKMSCKASGYSFTSYWMHWVKQRPGQGLEWIGAIYPGNSDTSYNQKFKGKAKLTAVTSASTAYMELSSLTNEDSAVYYCTRSVYYGYGYFDVWGAGTTVTVSS
VL: DILMTQSHKCMSTSVGDRVSITCKASQDVSTAVVWYQQKPGQFPKLLIYWASTRHTGVPDRFTGSGSGTDYTLTISSVQAEDLALYYCQQHYTTPYTFGGGTKLEIKR
B4: F26G10 (antibody, V domains shown)
VH: EVQLEESGTVLARPGASVKMSCKASGYSFTSYWMHWVKQRPGQGLDWIGAIYPENSDTSYNQKFKGKAKLTAVTSASTAYMEHSSLTNEDSAVYYCTRSVYYGYGYFDVWGAGTTVTVSS
VL: DILMTQSHKFMSTSVGDRVSITCKASQDVSTAVAWYQQKPGQSPKLLIYWASTRHTGVPDRFTGSGSGTDYTLTISSVQAEDLALYYCQQHYSTPYTFGGGTKLEIKR

Tests used:
[1] = target: SARS-HCoV antigen(s) of unknown identity (purified whole virus, infected Vero cell lysate or infected Vero cells); assay: ELISA, OD on native virus against OD on heat-denatured virus
[2] = target: SARS-HCoV antigen(s) of unknown identity (purified whole virus, infected Vero cell lysate or infected Vero cells); assay: ELISA, virus heated 100 C 10 min, coated at 32 ng/well
[3] = target: SARS-HCoV antigen(s) of unknown identity (purified whole virus, infected Vero cell lysate or infected Vero cells); assay: ELISA, native gradient purified virus coated at 32 ng/well

Row | Binder | O.D. Reduction, Fold [1] [fold] | O.D. Reduction, Percent [1] [%] | ELISA OD 405 nm, Denatured Lysate [2] [OD 405 nm] | ELISA OD 405 nm, Viral Lysate (native) [3] [OD 405 nm]
1 | B1 | 4.5 | 78 | 0.276 | 1.25
2 | B2 | 5 | 80 | 0.382 | 1.92
3 | B3 | 4.8 | 79 | 0.278 | 1.34
4 | B4 | 4.3 | 77 | 0.29 | 1.26
